Experiments:
[1] = target: recombinant LH/CG receptor (UniProt P22888)
[2] = target: recombinant LH/CG receptor (UniProt P22888); remark: listed apart in the source

UniProt P22888, sequence (P22888 27-699): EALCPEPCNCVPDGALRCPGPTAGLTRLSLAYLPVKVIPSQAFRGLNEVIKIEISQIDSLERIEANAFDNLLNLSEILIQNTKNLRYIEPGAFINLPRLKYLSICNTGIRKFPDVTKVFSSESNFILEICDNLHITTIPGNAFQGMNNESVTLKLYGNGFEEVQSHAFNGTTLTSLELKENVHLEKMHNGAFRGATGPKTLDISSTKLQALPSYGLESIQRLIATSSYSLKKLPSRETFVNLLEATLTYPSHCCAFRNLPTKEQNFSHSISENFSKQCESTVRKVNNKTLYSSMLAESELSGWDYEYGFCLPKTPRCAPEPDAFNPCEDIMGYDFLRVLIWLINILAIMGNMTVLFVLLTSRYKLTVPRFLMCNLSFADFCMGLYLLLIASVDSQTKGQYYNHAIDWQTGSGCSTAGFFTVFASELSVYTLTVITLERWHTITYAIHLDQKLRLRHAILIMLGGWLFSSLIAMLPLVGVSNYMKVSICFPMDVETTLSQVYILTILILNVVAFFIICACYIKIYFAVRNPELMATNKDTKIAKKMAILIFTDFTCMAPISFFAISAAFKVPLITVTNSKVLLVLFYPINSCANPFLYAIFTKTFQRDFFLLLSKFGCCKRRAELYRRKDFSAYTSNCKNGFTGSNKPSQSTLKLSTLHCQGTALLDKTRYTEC

cAMP biosensor signal in COS7-LHCGR cells with 30 pM hCG after heat treatment of the hormone at 65 °C for 30 min; loss in active hormone concentration [1]: 40%
change of FRET signal of the cAMP biosensor TEpacVV in living COS7-LHCGR cells, serial concentrations of hCG over time; concentration giving full receptor activation [2]: 50 pM
Substance: human recombinant chorionic gonadotropin (hCG, Ovitrelle) (from UniProt P01215 25-116; P0DN86 21-165) (ligand)
